Target: the molecule itself
Test: SAXS; concentration series in solution without RNA (Trx-RRM3 1.25–10 mg/ml; untagged full-length HuR WT and W261E, lowest 0.5 mg/ml); molecular weights from the Porod volume

B1: Trx-RRM3 (HuR RRM3 fused to the C-terminus of E. coli thioredoxin 1 via a GSAM linker) (domain or fragment, human, UniProt Q15717-1 243-326, looked up)
chain: GWCIFIYNLGQDADEGILWQMFGPFGAVTNVKVIRDFNTNKCKGFGFVTMTNYEEAAMAIASLNGYRLGDKILQVSFKTNKSHK
notes: Human HuR/ELAVL1 (NP_001410.2), third RNA recognition motif; Chain order: E. coli thioredoxin 1, Gly-Ser-Ala-Met, RRM3; Thioredoxin structure 2TRX was used for molecular replacement; also called RRM3-Trx; Trx-RRM3 fusion protein; source: E. coli BL21(DE3), purified; not shown: Trx (E. coli thioredoxin 1, uncleavable GSAM linker), N-terminal, kept
How did the “stoichiometry N” value turn out when B1 was run?
The value was 2.
